The text below walks through data of patent CN115232210A (SHANGDONG NEW TIME PHARM PROD, dated 2022).

Numbering of substitutions follows the chain as printed.

Usually Kd stands for a measure of binding affinity in units of concentration. Low values mean higher affinity, high ones lower affinity. Usually koff stands for the first-order rate constant of dissociation. As a reminder, the kon is the rate constant with which the complex forms. As a reminder, the EC50 is the midpoint of the concentration-response curve.

One experiment addresses T1, 重组人CD40-his蛋白 (human, UniProt P25942 21-193).
T1 construct: extracellular domain; Recombinant protein; also called 人CD40(ECD)-his; huCD40-his; not shown: his tag
Kind of experiment: BLI (Fortebio Blitz), antibody on AMC sensor, huCD40-his 6.25-200 nM. (BLI is a label-free optical method that tracks binding on a fibre tip over time.)

Another experiment has as its target T2, HEK293T细胞表达的人CD40 (human, UniProt P25942 21-277).
T2 construct: whole, on cells; also called HEK293T-huCD40
Kind of experiment: flow cytometry on 293T-huCD40 cells. A general note: Flow cytometry measures light scatter and fluorescence of single cells or particles in a stream.

T1 sequence (P25942 21-193): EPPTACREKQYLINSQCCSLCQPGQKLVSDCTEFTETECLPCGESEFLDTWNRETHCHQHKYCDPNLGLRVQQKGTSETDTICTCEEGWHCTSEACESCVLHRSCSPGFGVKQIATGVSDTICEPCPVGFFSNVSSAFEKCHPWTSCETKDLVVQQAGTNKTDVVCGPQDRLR
T2 sequence (P25942 21-277): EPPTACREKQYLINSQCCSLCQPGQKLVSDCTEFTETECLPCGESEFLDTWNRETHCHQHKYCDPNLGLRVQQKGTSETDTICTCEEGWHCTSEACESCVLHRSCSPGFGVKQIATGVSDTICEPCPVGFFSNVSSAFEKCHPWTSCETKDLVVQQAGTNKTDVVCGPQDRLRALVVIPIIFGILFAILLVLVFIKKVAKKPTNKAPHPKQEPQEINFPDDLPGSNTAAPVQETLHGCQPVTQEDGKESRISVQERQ

B1: 嵌合抗体C42 (antibody, human IgG1, kappa, V domains shown)
VH: QVQLKQSGPGLVQPSQSLSITCTVSGFSLTSYGVHWVRQSPGKGLEWLGMIWSGGSTDYNSAFISRLSISKDNFKSQVFFKMNSLQADDTAIYYCARVGGDYWGQGTTVTVSS
VL: DIVITQTPLSLPVSLGDPASISCRSSQSLVHSRGNTYLHWFLQKPGQSPKLLIYKVSNRFSGVPDRFSGSGSGTDFTLRISRLEAEDLGVYFCFQTTHVPWTFGGGTKLEIKR
notes: Mouse-human chimeric IgG1/kappa expressed in Expi-293 cells; also called 42Chimeric; 抗体42D11-8的嵌合抗体
As for B1, in the experiment with 重组人CD40-his蛋白, the Kd was 0.0135 µM, the dissociation rate constant (koff) was found to be 0.00524 s⁻¹ and the kon was 389000 M⁻¹ s⁻¹.

B2: 嵌合抗体C31 (antibody, human IgG1, kappa, V domains shown)
VH: B1 VH with Q6E, S31N, G33S, S61A
VL: B1 VL with I2V, V3L, I4M, V30L, L83V
notes: Mouse-human chimeric IgG1/kappa expressed in Expi-293 cells; also called 31Chimeric; 抗体31A2-2的鼠人嵌合抗体
As to B2, in the experiment with 重组人CD40-his蛋白, the equilibrium dissociation constant (Kd) stood at 0.00452 µM, the koff is 0.000395 s⁻¹ and the on-rate (kon) worked out at 87500 M⁻¹ s⁻¹.

B3: 人源化抗体42 (antibody, human IgG1, kappa, V domains shown)
VH: QVQLQESGPGLVKPSQTLSLTCTVSGFSLTSYGVHWVRQHPGKGLEWLGMIWSGGSTDYNSAFISRLTISKDNSKSQVSLKLSSVTAADTAVYYCARVGGDYWGQGTTVTVSS
VL: DIVITQSPLSLPVTLGQPASITCRSSQSLVHSRGNTYLHWFQQRPGQSPRLLIYKVSNRFSGVPDRFSGSGSGTDFTLKISRVEAEDVGVYFCFQTTHVPWTFGQGTRLEIKR
notes: Humanized IgG1/kappa; also called 42D11-8-humanized; 42Humanized
As for B3, in the experiment with HEK293T细胞表达的人CD40, the response was half-maximal at 0.251 mg/L (EC50). In the experiment with 重组人CD40-his蛋白, this molecule registered a dissociation constant (Kd) of 0.0332 µM, a koff of 0.00312 s⁻¹ and a kon of 94000 M⁻¹ s⁻¹.

B4: 人源化抗体31 (antibody, human IgG1, kappa, V domains shown)
VH: B3 VH with Q16E, G33S, H40P, S61A
VL: B3 VL with I2V, I4M, V30L
notes: Humanized IgG1/kappa; also called 31A2-2-humanized; 31Humanized
The molecule B4 gave an EC50 with HEK293T细胞表达的人CD40 of 0.297 mg/L. Further, in the experiment with 重组人CD40-his蛋白, the Kd is 0.0165 µM, the koff was 0.00223 s⁻¹ and the kon stood at 135000 M⁻¹ s⁻¹.

B5: APX005M (antibody, V domains shown)
VH: QVQLVESGGGVVQPGRSLRLSCAASGFSFSSTYVCWVRQAPGKGLEWIACIYTGDGTNYSASWAKGRFTISKDSSKNTVYLQMNSLRAEDTAVYFCARPDITYGFAINFWGPGTLVTVSS
VL: DIQMTQSPSSLSASVGDRVTIKCQASQSISSRLAWYQQKPGKPPKLLIYRASTLASGVPSRFSGSGSGTDFTLTISSLQPEDVATYYCQCTGYGISWPIGGGTKVEIK
Turning to B5, the concentration for a half-maximal effect (EC50) in the experiment with HEK293T细胞表达的人CD40 is 0.487 mg/L. Further, in the experiment with 重组人CD40-his蛋白, binding was characterised by a dissociation constant (Kd) of 0.0382 µM, the off-rate (koff) turned out to be 0.00533 s⁻¹ and the kon stood at 140000 M⁻¹ s⁻¹.
